Residue numbers refer to the chain shown, from its start. Numbers in names are those of the source. Read-outs that look alike come from different tables or passages of the source.
Legend:
[1] = target: T1, recombinant, GPI-linked human FcRn on cell line NS0 HuFcRn (memb), clone 7-3 (human, UniProt P55899 24-297; P61769 21-119); experiment: IC50 of wild-type / IC50 of this antibody, same assay
T1 construct: Expressed from pDL208 on the surface of NS0 cells; also called human neonatal Fc receptor; not shown: human c-myc decapeptide flanked by linker peptides, then GPI linkage signal of human decay accelerating factor (vector p)

[2] = target: T1, recombinant, GPI-linked human FcRn on …; experiment: competition FACS vs biotinylated human IgG on NS0 cells expressing human FcRn, FBB pH 6.0
[3] = target: T1, recombinant, GPI-linked human FcRn on …; experiment: IC50 of wild-type / IC50 of this antibody, same assay; remark: listed apart in the source
[4] = target: T2, recombinant, GPI-linked rhesus FcRn on cell line NS0 RhFcRn, clone R-3 (rhesus, UniProt H9Z6D2 24-297; Q6V7J5 21-119, GPI-linked); experiment: as above
T2 construct: Expressed from pDL410 on the surface of NS0 cells; not shown: human c-myc decapeptide flanked by linker peptides, then GPI linkage signal of human decay accelerating factor (vector p)

[5] = target: T1, recombinant, GPI-linked human FcRn on …; experiment: competition FACS vs biotinylated human IgG on NS0 cells expressing human FcRn, FBB pH 6.0; remark: listed apart in the source
[6] = target: T2, recombinant, GPI-linked rhesus FcRn on …; experiment: competition FACS vs biotinylated human IgG on NS0 cells expressing rhesus FcRn, FBB pH 6.0
[7] = target: T1, recombinant, GPI-linked human FcRn on …; experiment: IC50 of wild-type / IC50 of this antibody, same assay; remark: listed apart in the source
[8] = target: T2, recombinant, GPI-linked rhesus FcRn on …; experiment: as above; remark: listed apart in the source
[9] = target: T1, recombinant, GPI-linked human FcRn on …; experiment: competition FACS vs biotinylated human IgG on NS0 cells expressing human FcRn, FBB pH 6.0; remark: listed apart in the source
[10] = target: T2, recombinant, GPI-linked rhesus FcRn on …; experiment: competition FACS vs biotinylated human IgG on NS0 cells expressing rhesus FcRn, FBB pH 6.0; remark: listed apart in the source
[11] = target: T1, recombinant, GPI-linked human FcRn on …; experiment: IC50 of wild-type / IC50 of this antibody, same assay; remark: listed apart in the source
[12] = target: T1, recombinant, GPI-linked human FcRn on …; experiment: competition FACS vs biotinylated human IgG on NS0 cells expressing human FcRn, FBB pH 6.0; remark: listed apart in the source
[13] = target: T1, recombinant, GPI-linked human FcRn on …; experiment: pH-dependent binding and release FACS on NS0 cells expressing human FcRn (FIG. 15B)

B1: M200-IgG4 wild-type (volociximab) (antibody)
heavy: not shown
light: QIVLTQSPAIMSASLGERVTMTCTASSSVSSNYLHWYQQKPGSAPNLWIYSTSNLASGVPARFSGSGSGTSYSLTISSMEAEDAATYYCHQYLRSPPTFGGGTKLEIKRTVAAPSVFIFPPSDEQLKSGTASVVCLLNNFYPREAKVQWKVDNALQSGNSQESVTEQDSKDSTYSLSSTLTLSKADYEKHKVYACEVTHQGLSSPVTKSFNRGEC
notes: Chimeric anti-α5β1 integrin; also called M200-IgG4 WT
Relative Binding [1]: 1 ratio
IC50 [2]: 34.7 µg/mL

B2: M200-IgG4 T250Q/M428L (antibody)
heavy: not shown
light: B1 light
Relative Binding [1]: 35 ratio
IC50 [2]: 1 µg/mL

B3: Hu1D10-IgG3 wild-type (antibody)
heavy: QVQLQESGPGLVKPSETLSLTCTVSGFSLTNYGVHWVRQSPGKGLEWIGVKWSGGSTEYNAAFISRLTISKDTSKNQVSLKLNSLTAADTAVYYCARNDRYAMDYWGQGTLVTVSSASTKGPSVFPLAPCSRSTSGGTAALGCLVKDYFPEPVTVSWNSGALTSGVHTFPAVLQSSGLYSLSSVVTVPSSSLGTQTYTCNVNHKPSNTKVDKRVELKTPLGDTTHTCPRCPEPKSCDTPPPCPRCPEPKSCDTPPPCPRCPEPKSCDTPPPCPRCPAPELLGGPSVFLFPPKPKDTLMISRTPEVTCVVVDVSHEDPEVQFKWYVDGVEVHNAKTKLREEQYNSTFRVVSVLTVLHQDWLNGKEYKCKVSNKALPAPIEKTISKAKGQPREPQVYTLPPSREEMTKNQVSLTCLVKGFYPSDIAVEWESNGQPENNYNTTPPMLDSDGSFFLYSKLTVDKSRWQQGNIFSCSVMHEALHNRYTQKSLSLSPGK
light: DIQMTQSPSSLSASVGDRVTITCRASENIYSYLAWYQQKPGKAPKLLVSNAKTLAEGVPSRFSGSGSGKQFTLTISSLQPEDFATYYCQHHYGNSYPFGQGTKLEIKRTVAAPSVFIFPPSDEQLKSGTASVVCLLNNFYPREAKVQWKVDNALQSGNSQESVTEQDSKDSTYSLSSTLTLSKADYEKHKVYACEVTHQGLSSPVTKSFNRGEC
Relative Binding [3]: 1 ratio
Relative Binding [4]: 1 ratio

B4: Hu1D10-IgG3 M428L (antibody)
heavy: B3 heavy with M474L
light: B3 light
Relative Binding [3]: 6.3 ratio
Relative Binding [4]: 4.6 ratio
IC50 [5]: 2.29 µg/mL
IC50 [6]: 3.03 µg/mL

B5: Hu1D10-IgG4 T250Q/M428L (antibody)
heavy: not shown
light: B3 light
Relative Binding [7]: 71 ratio
Relative Binding [8]: 77 ratio
IC50 [9]: 1.07 µg/mL
IC50 [10]: 1.27 µg/mL

B6: Hu1D10-IgG4 M428L (antibody)
heavy: not shown
light: B3 light
Relative Binding [7]: 15 ratio
Relative Binding [8]: 15 ratio
IC50 [9]: 5.03 µg/mL
IC50 [10]: 6.64 µg/mL

B7: HuM291-IgG2M3 wild-type (visilizumab) (antibody)
heavy: QVQLVQSGAEVKKPGASVKVSCKASGYTFISYTMHWVRQAPGQGLEWMGYINPRSGYTHYNQKLKDKATLTADKSASTAYMELSSLRSEDTAVYYCARSAYYDYDGFAYWGQGTLVTVSSASTKGPSVFPLAPCSRSTSESTAALGCLVKDYFPEPVTVSWNSGALTSGVHTFPAVLQSSGLYSLSSVVTVPSSNFGTQTYTCNVDHKPSNTKVDKTVERKCCVECPPCPAPPAAAPSVFLFPPKPKDTLMISRTPEVTCVVVDVSHEDPEVQFNWYVDGVEVHNAKTKPREEQFNSTFRVVSVLTVVHQDWLNGKEYKCKVSNKGLPAPIEKTISKTKGQPREPQVYTLPPSREEMTKNQVSLTCLVKGFYPSDIAVEWESNGQPENNYKTTPPMLDSDGSFFLYSKLTVDKSRWQQGNVFSCSVMHEALHNHYTQKSLSLSPSK
light: DIQMTQSPSSLSASVGDRVTITCSASSSVSYMNWYQQKPGKAPKRLIYDTSKLASGVPSRFSGSGSGTDFTLTISSLQPEDFATYYCQQWSSNPPTFGGGTKVEIKRTVAAPSVFIFPPSDEQLKSGTASVVCLLNNFYPREAKVQWKVDNALQSGNSQESVTEQDSKDSTYSLSSTLTLSKADYEKHKVYACEVTHQGLSSPVTKSFNRGEC
notes: Humanized anti-CD3; also called HuM291-IgG2M3 WT; Nuvion
Relative Binding [11]: 1 ratio
IC50 [12]: 42.2 µg/mL

B8: HuM291-IgG2M3 T250Q/M428L (antibody)
heavy: B7 heavy with T249Q, M427L
light: B7 light
Relative Binding [11]: 42 ratio
IC50 [12]: 0.994 µg/mL

B9: OST577-IgG1 T250D (antibody)
heavy: not shown
light: SYVLTQPPSVSVAPGQTARITCGGDNIGSKSVNWFQQKPGQAPVLVVYDDNERPSGISERFSGSNSGNTATLTISRVEAGDEADYYCQVWDSSSDHVVFGGGTKLTVLGQPKAAPSVTLFPPSSEELQANKATLVCLISDFYPGAVTVAWKADSSPVKAGVETTTPSKQSNNKYAASSYLSLTPEQWKSHRSYSCQVTHEGSTVEKTVAPTECS
binding result [13]: binds

Source: patent US20050276799A1 (PDL BIOPHARMA, published 2005)
